Assay results as given in patent US20230071765A1, “COMPOSITIONS HAVING THIOREDOXIN ACTIVITY AND RELATED METHODS” (ORPRO THERAPEUTICS, INC., priority 2020, published 2023).

Target: T1, human insulin (Homo sapiens, UniProt P01308)
T1 construct: The two chains of human insulin have a total of six Cys residues which form three disulfide bonds in its mature structure
Assay: RP-HPLC insulin reduction assay (conversion of insulin heterodimer)
Format: biochemical
Settings: for Relative % insulin reduction: relative to maximum
Protocol: Functional assays 1. Reduction state of ORP100S was quantified using DTNB which reacts with free SH groups resulting in a yellow color change at 412 nm. Fifty microliters of 2.5 mM rhTrx was added to a 96-well plate, followed by 175 microliters of sample buffer and 25 microliters of 6 mM DTNB. After reactions were initiated by the addition of DTNB, change in kinetic absorbance at 412 nm due to DTNB reduction was monitored spectrophotometrically at 30° C. ORP100S concentration was determined by A280 (Nanodrop) using the extinction coefficient of human Trx-1 (7,000). The actual concentrations of free sulfhydryl groups were calculated based on the absorbance at 412 nm and the extinction coefficient of DTNB (14,150) in order to determine the reduction state as percentage of free sulfhydryl. […] 2. Percent of free monomer ORP100S in solution was determined using SEC. Samples were analyzed on a BioBasic S-300 250×4.6 column (Thermo Scientific) run on an Agilent 1100 HPLC system. The SEC-HPLC mobile phase buffer consisted of 40 mM ammonium acetate (pH 5.5), 2 mM EDTA and 450 mM NaCl. Low pH minimized dimerization while the 450 mM NaCl concentration improved resolution. The flow rate was 0.35 mL/min and absorbance was monitored at 280 nm. The length of each run was 20 minutes. The ORP100S monomer percentage was determined by integration of the area under the peak of the monomeric fraction divided by the total area under the curve of the chromatogram. 3. Disulfide bond reduction activity of ORP100S was quantified by assaying the reduction state of a small protein (human insulin) which in its heterodimeric form contains two intermolecular and one intramolecular disulfide, all three of which are known to be suitable thioredoxin substrates. Insulin reduction has classically been used to quantify thioredoxin activity by absorbance change following addition of NADPH and TrxR (Holmgren A., 1979, Thioredoxin catalyzes the reduction of insulin disulfides by dithiothreitol and dihydrolipoamide, J Biol Chem 254:9627-32). Such an approach is not suitable for monothiol C35S thioredoxins ORP-100 and ORP100S due to 1) the lack of cycling resulting from stoichiometric covalent linkage to the disulfide bond substrate and 2) the inability of NADPH and TrxR to reduce Cys32 of the oxidized monothiol Trx active site. Consequently, a new assay was developed based on the use of reverse-phase (RP) HPLC to monitor the rate of conversion of disulfide-bonded insulin heterodimers to monomeric forms. The two chains of human insulin have a total of six Cys residues which form three disulfide bonds in its mature structure. When ORP100S in the reduced form is incubated with dimeric insulin it reacts with these disulfide bonds to disrupt them, simultaneously forming covalent linkages to the ORP100S Cys32. […] The ORP100S samples were incubated with 10 mg/mL insulin for various time points (0-90 min) and the reactions were stopped by addition of iodacetic acid (IA) and trifluoroacetic acid (TFA). Relative activity at each time point was determined from changes in the area under the insulin heterodimer peak following separation over RP-HPLC (Agilent 1100) using an Intrada WP-RP 50×3 (Imtakt) column. Buffer A was 0.1% TFA and Buffer B was 0.1% TFA in acetonitrile. The gradient was […] in 5 min followed by 30 to 60% B in 45 min, then 60 to 80% B for an additional 5 min. The flow rate was 0.2 mL/min and absorbance was measured at 280 nm. In order to evaluate the change in the intact insulin molecule a time 0 baseline was first established using 1 M IA and 0.1% TFA without the addition of ORP100S. The area under the intact insulin heterodimer peak was then determined and set as equivalent to 100%. After the reaction with ORP100S the area of the intact insulin peak (corresponding to retention time) was measured. The percent reduction in intact insulin was then calculated from the decrease in the area following reduction divided by the area at time 0 multiplied by 100.

T1 sequence (P01308 25-54 limits assumed): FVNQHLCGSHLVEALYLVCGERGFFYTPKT
T1 sequence (P01308 90-110 limits assumed): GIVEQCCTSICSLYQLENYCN

B1: ORP100S: thioredoxin with monothiol active site, Cys35 and non-active Cys 62, 69 and 73 substituted with serine (SEQ ID NO:29) (protein)
chain: MVKQIESKTAFQEALDAAGDKLVVVDFSATWCGPSKMIKPFFHSLSEKYSNVIFLEVDVDDSQDVASESEVKSMPTFQFFKKGQKVGEFSGANKEKLEATINELV
modifications: synthetic peptide motif
Relative % insulin reduction (Ox:Red 0:100 mixture): 100% | Relative % insulin reduction (Ox:Red 25:75 mixture): 72% | Relative % insulin reduction (Ox:Red 50:50 mixture): 51% | Relative % insulin reduction (Ox:Red 75:25 mixture): 36% | Relative % insulin reduction (Ox:Red 100:0 mixture): 8% | maximum insulin heterodimer reaction (fully reduced material, time and conditions used): 45%
